In experiment [1] the target is T1, Aβ1-42 fibrils (human).
T1 construct: Aβ1-42 polypeptide, HFIP-treated, incubated in 10 mM HCl at 37 C for 24 h, pelleted fibrillar fraction, sonicated; Multimeric fibril; also called fibril Aβ42; fibrillar Aβ42
The experiment in a line: direct binding to fibrillar Aβ1-42 (FIG. 27).

Experiment [2] has as its target T2, Aβ1-28 (human).
T2 construct: Bought peptide (Bachem); also called Aß1-28 monomer; A131-28
The experiment in a line: SPR (Biacore T200); antibody captured by anti-human Fc, Aβ1-28 as analyte; global 1:1 fit; apparent KD. As to the method: (§1) Determination of binding affinity of anti-Aß candidates to Aß₁₋₂₈ (Bachem, Torrance, CA) was performed using a Biacore T200. Anti-human Fc antibody was immobilized to a CM3 sensor chip (GE Healthcare Life Sciences) via amine coupling and used to capture Aß antibodies.
(§2) Various concentrations of Aß₁₋₂₈ (analyte, ranging from concentrations of 100 nM down to 0.39 nM, serial diluted 2-fold each dilution step) were passed over the captured ligand at 50 μl/min in running buffer (HBS+0.05% P-20, 1 mg/mL BSA) for 240 s association time and 900 s dissociation time. Data were blank subtracted to both an irrelevant sensor not containing ligand, and buffer runs containing 0 nM analyte concentration. Analysis was performed using a global 1:1 fit with Biacore Evaluation software (v3.0).

Experiment [3] concerns the target T3, AβpE3-42 (human, N-terminal pyroglutamate at position 3 of Aβ).
T3 construct: also called pyroglutamate-3 Aβ; pyroglutamate-modified Aβ
The experiment in a line: direct binding to AβpE3-42 (FIG. 27).

In experiment [4] the target is T4, Aβ pathology (plaques) in human AD brain tissue (human, UniProt P05067 672-713).
T4 construct: Native tissue deposits, heterogeneous; also called tissue Aβ pathology; Aβ plaques
The experiment in a line: IHC on frozen human AD brain sections, brain AD 15-19; % stained area against antibody concentration (0.03-9 µg/ml). As for the experimental part: (§3) Tissue Sectioning and Fixation. The unfixed frozen brain tissue samples were embedded in Tissue-Tek OCT (Sakura Finetek) in cryomolds dipped in a mixture of 2-methylbutane and dry ice slurry (−60° C.) then stored at −80° C. until sectioning. Serial 10 μm thick cryosections were generated using a Leica 3050S cryostat. The sections were directly thaw-mounted on positively charged glass slides and were stored at −20° C. until use. Prior to immunohistochemistry IHC procedures, the slides were immersed in 10% neutral buffered formalin solution for 10 minutes at 4° C., rinsed in PBS, then incubated for an hour at 37° C. in a glucose oxidase solution (20 mM beta D(+) glucose, 2 mM sodium azide, and 2 units/mL glucose oxidase in 1×PBS). The slides were rinsed 3 times for 5 minutes in PBS before they were transferred onto staining racks for processing in an automated stainer.
(§4) Antibody biotinylation. The humanized IgG antibodies were biotinylated using a non-covalent method, by means of incubation with a biotin-conjugated goat anti-human monovalent fab fragment (Jackson ImmunoResearch) in a ratio of 1:4, for 1 hour at room temperature. Unbound excess Fab was absorbed by pre-incubation with human serum for an additional hour before use. The freshly prepared antibodies were then loaded into the stainer for immediate application to tissue sections.
(§5) Immunostaining. The staining was performed in an automated Leica Bond Rx Stainer (Leica Biosystems), using the Bond Research Kit (DS980, Leica Biosystems) and the avidin-biotin amplified immuno-peroxidase detection system. Each biotinylated anti-Aβ antibody, or a human IgG control, was applied to the sections, at specified concentrations, for one hour and the staining was visualized using the avidin-biotin amplification system (ABC Elite Standard, PK-6100; Vector Laboratories). Hematoxylin counter-staining of nuclei was subsequently applied to sections before dehydration in an ascending series of alcohols, clearing in xylene, cover-slipping, and air-drying.

Experiment [5] has as its target soluble Aβ (Aβ42) aggregates (human, unlabeled, biotinylated or 9:1 unlabeled:biotinylated (position of biotin not stated)). The experiment in a line: cell-based or functional assay.
Experiment [6] has as its target T1, Aβ1-42 fibrils. The experiment in a line: SPR (BIAcore T200); Aβ1-42 fibrils immobilized, antibody as analyte; global 1:1 fit; apparent KD (avidity). As for the experimental part:
(§6) Fibrils were immobilized on sensor chip CMS (GE Healthcare Life Sciences) via amine coupling to a level to ensure a maximum binding of analyte of approximately 50 RU. […] Regeneration of the chip surface was accomplished by 2 short injections of 10 mM Glycine-HCl pH 1.7. Data was blank subtracted to both a sensor not containing ligand and 0 nM analyte concentration. Analysis was performed using a global 1:1 fit with BIAcore Insight Evaluation software (v2.0) with bulk refractive index set to zero RU.

The target in experiment [7] is T1, Aβ1-42 fibrils. The experiment in a line: SPR (BIAcore T200); Aβ1-42 fibrils immobilized, antibody as analyte; global 1:1 fit. As to the method:
as §6

The target of experiment [8] is T4, Aβ pathology (plaques) in human AD …. The experiment in a line: IHC on frozen human AD brain sections, brain AD 13-75; % stained area against antibody concentration (0.03-9 µg/ml). As to the method:
as §3, §4, §5

Experiment [9] has as its target T2, Aβ1-28. The experiment in a line: SPR (Biacore T200); antibody captured by anti-human Fc, Aβ1-28 as analyte; global 1:1 fit. As for the experimental part:
as §1, §2
In general terms: In SPR one partner is held on a chip, and binding of the other changes the refractive index at the surface.

Experiment [10] concerns the target T4, Aβ pathology (plaques) in human AD …. The experiment in a line: IHC on frozen human AD brain sections, brain AD 14-11; % stained area against antibody concentration (0.03-9 µg/ml). As for the experimental part:
as §3, §4, §5

Experiment [11] shares this target. The experiment in a line: IHC on frozen human AD brain sections, brain AD 11-97; % stained area against antibody concentration (0.03-9 µg/ml). As to the method:
as §3, §4, §5

Experiment [12] addresses T1, Aβ1-42 fibrils. The experiment in a line: competition ELISA; plate coated with fibril Aβ42; competitor hBP-biotin; IC50 of test divided by IC50 of hBP. As for the experimental part:
To generate fibrils, Aβ 1-42 polypeptides, previously treated with HFIP (hexafluoroisopropanol) and dried, were resuspended in DMSO to 5 mM, then further diluted to 100 uM with 10 mM HCl. Samples were incubated at 37° C. for 24 h, and then centrifuged to separate soluble and fibrillar species. The pellet was the resuspended in 1×D-PBS to the original volume and sonicated before use.
Plates were coated with 0.5 mg/ml of fibril Aβ 42 and blocked, e.g., with 1% BSA/PBS. […] 100 ul of GE Streptavidin HRP diluted 1/10,000 was then added and incubated for 30 minutes. Plates were then washed 6× with TTBS. Thermo Fisher o-phenylenediamine dihydrochloride (OPD) substrate was prepared fresh per manufacturers direction, and 100 ul per well was added. The reaction was incubated for 15 minutes and the reaction stopped with 50 ul 2N H₂SO₄.

Experiment [13] deals with soluble Aβ oligomers (Example 8) (UniProt P05067 672-713, biotin on the biotinylated preparation and on one tenth of the 9:1 mixture (position not given)). The experiment in a line: direct ELISA; plate coated with soluble Aβ oligomers, antibody titrated. As to the method: The samples were incubated for 2 hours at room temperature. Plates were washed 4 times with TBS. 0.1% tween 20. Goat anti-human (H+L) HRP (Jackson Immunoresearch, PA) was diluted 1/5000 in 0.1% BSA/PBS 0.1% tween 20, added at 100 μl/well and incubated 1 hour at room temperature. Plates were washed 4 times and o-phenylenediamine dihydrochloride tablets (ThermoFisher) were prepared as per manufacturer instructions. 100 μl was added per well and incubated for 15 minutes at room temperature. […] Curves and resulting EC₅₀ estimations represent nonlinear 3-parameter least-squares fit of data using GraphPad Prism software.

Several values for one entry are separate records, joined by “and”; a condition that tells them apart may be missing. Equal entries are not always repeated.

T2 sequence (peptide, as listed by the source): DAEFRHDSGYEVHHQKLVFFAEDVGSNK
T1 sequence (peptide, as listed by the source): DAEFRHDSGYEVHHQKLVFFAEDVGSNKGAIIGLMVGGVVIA
T3 sequence (peptide, as listed by the source): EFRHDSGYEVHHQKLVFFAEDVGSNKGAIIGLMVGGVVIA

B1: h2731 (antibody, V domains shown)
VH: EVQLLESGGGLVQPGGSLRLSCAASGFTFSNYGMSWVRQAPGKGLEWVASIRSGSGRTYYSDNVKGRFTISRDNSKNTLYLQMNSLRAEDTAVYYCVRYDHYSGSSDYWGQGTLVTVSS
VL: DVVMTQSPLSLPVTLGEPASISCKSSQSLLDYDGKTYLNWLLQKPGQSPQRLIYRVTNRDTGVPDRFSGSGSGTDFTLKISRVEAEDVGVYYCWQGTHFPRSFGQGTKVEIK
notes: Humanized IgG mAb; Only the variable domains are tied to the construct
Turning to B1, in experiment [1], the EC50 (in general, the concentration that produces a half-maximal response) was 0.0081 µg/mL and 0.054 nM. Further, the Kd came out at 5.01 nM in experiment [2] and 0.0704 nM in [6]. Also, in experiment [3], the binding result is recorded as “no binding (tested: 100 ng/ml)”. In addition, the “Area Under Curve” value in experiment [4] is 52.7; in experiment [8], 150; in experiment [10] it was 149; in [11] it was 50.6. Moreover, the “blockade of binding of soluble Aβ to rat hippocampal neurons at 1:50 molar mAb:Aβ42 ratio” value in [5] was more than 90%. The koff (usually the rate constant with which the complex falls apart) in experiment [7] came to 2.62e-05 s⁻¹; in experiment [9] it was 0.000595 s⁻¹. Also, the kon (as a rule, a measure of how fast the partners come together) was found to be 372000 M⁻¹ s⁻¹ in [7] and 119000 M⁻¹ s⁻¹ in experiment [9]. The “IC50 ratio (test:hBP)” value in experiment [12] came to 0.61 ratio.

B2: h2931 (antibody, V domains shown)
VH: EVQLLESGGGLVQPGGSLRLSCAASGFTFSNFGMSWVRQAPGKGLEWVASVRSGSGRTYYSDNVKGRFTISRDNSKNTLYLQMNSLRAEDTAVYYCVRYDHYTGTSDYWGQGTLVTVSS
VL: DVVMTQSPLSLPVTLGEPASISCKSSQSLLDYDGKTYLNWLLQKPGQSPQRLIYRVTNRDTGVPDRFSGSGSGTDFTLKISRVEAEDVGVYYCWQGTHFPRSFGQGTKVEIK
notes: also called PB-0576
Turning to B2, the Kd stood at 4.35 nM in [2] and 0.0612 nM in [6]. Further, the “Area Under Curve” value was 44.8 in experiment [4], 139 in experiment [8], 134 in experiment [10] and 47.7 in experiment [11]. Further, the concentration giving a half-maximal response (EC50) in experiment [13] was 0.023 µg/mL and 0.15 nM. Moreover, the koff amounted to 2.05e-05 s⁻¹ in experiment [7] and 0.000412 s⁻¹ in experiment [9]. The on-rate constant (kon) in [7] was 335000 M⁻¹ s⁻¹; in [9] it was 94700 M⁻¹ s⁻¹. The “IC50 ratio (test:hBP)” value in experiment [12] came out at 0.59 ratio.
